US20250197487A1 (AKESO BIOPHARMA, published 2025)

Experiments:
[1] = target: T1, PD-1 on the surface of 293T-PD-1 cells (UniProt Q15116 25-288, limits assumed); assay: FACS, 293T-PD-1 cells, antibody 3.70 nM
T1 construct: whole, on cells
Procedure: (§1) Then PBS was used for washing, and 300 μL of PBSA was used to resuspend the cells, and fluorescence signals (MFI) were detected with FITC channel on a flow cytometer.

[2] = target: T1, PD-1 on the surface of 293T-PD-1 cells; assay: FACS, 293T-PD-1 cells, antibody 0.14 nM
Procedure: as §1

fusion protein PD-1-mFc [3] = target: T2, fusion protein PD-1-mFc (human, UniProt Q15116 25-170); assay: indirect ELISA, PD-1-mFc coat 0.5 µg/mL
T2 construct: also called human PD-1-mFc; not shown: mFc (Fc of mouse IgG)
T2 sequence (Q15116 25-170): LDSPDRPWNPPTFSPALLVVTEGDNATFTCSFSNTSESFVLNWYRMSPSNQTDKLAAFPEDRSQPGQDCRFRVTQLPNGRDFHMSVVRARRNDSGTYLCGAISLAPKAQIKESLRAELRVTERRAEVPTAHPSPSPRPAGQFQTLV
Procedure: (§2) The microplate was coated with human PD-1-mFc and incubated overnight at 4° C. After being blocked with 1% BSA at 37° C. for 2 hours, the microplate was added with antibody, and then incubated at 37° C. for 30 minutes. […] After the microplate was washed and patted dry, TMB (Neogen, 308177) was added for color developing for 5 minutes, and then stop solution was added to terminate the color development. Then the microplate was put into a microplate reader immediately, and the OD value of each well in the microplate was read at 450 nm. SoftMax Pro 6.2.1 was used to analyze and process the data.

fusion protein PD-1-mFc [4] = target: T2, fusion protein PD-1-mFc; assay: indirect ELISA (2nd), PD-1-mFc coat 0.5 µg/mL
Procedure: as §2

[5] = target: T1, PD-1 on the surface of 293T-PD-1 cells; assay: FACS (2nd), 293T-PD-1 cells, antibody 0.41 nM
Procedure: as §1

[6] = target: T1, PD-1 on the surface of 293T-PD-1 cells; assay: FACS (2nd), 293T-PD-1 cells, antibody 11 nM
Procedure: as §1

[7] = target: T1, PD-1 on the surface of 293T-PD-1 cells; assay: FACS (2nd), 293T-PD-1 cells, antibody 3.7 nM
Procedure: as §1

fusion protein PD-1-mFc [8] = target: T2, fusion protein PD-1-mFc; assay: indirect ELISA, antibody 0 (blank)
[9] = target: T1, PD-1 on the surface of 293T-PD-1 cells; assay: FACS (2nd), 293T-PD-1 cells, antibody 0.014 nM
Procedure: as §1

[10] = target: T1, PD-1 on the surface of 293T-PD-1 cells; assay: FACS (2nd), 293T-PD-1 cells, antibody 0.14 nM
Procedure: as §1

[11] = target: T1, PD-1 on the surface of 293T-PD-1 cells; assay: FACS (2nd), 293T-PD-1 cells, antibody 100 nM
Procedure: as §1

fusion protein PD-1-mFc [12] = target: T2, fusion protein PD-1-mFc; assay: BLI (Fortebio), antibody on AHC sensor, PD-1-mFc 0.62-50 nM, 1:1 fit
Procedure: The sample dilution buffer was PBS (0.02% Tween-20, 0.1% BSA, pH7.4). 5 μg/mL antibody was immobilized to an AHC sensor with the immobilization height being about […]. The sensor was equilibrated in a buffer for 60 s, and the antibody immobilized to the sensor bound to PD-1-mFc at a concentration of 0.62-50 nM (three-fold gradient dilution) for 120 s, and then the antigen and antibody dissociated in the buffer for 300 s. The data were analyzed by 1:1 model fitting to obtain affinity constants. The data acquisition software was Fortebio Data Acquisition 7.0, and the data analysis software was Fortebio Data Analysis 7.0.

[13] = target: T1, PD-1 on the surface of 293T-PD-1 cells; assay: FACS, 293T-PD-1 cells
Procedure: as §1

[14] = target: T1, PD-1 on the surface of 293T-PD-1 cells; assay: FACS, 293T-PD-1 cells, antibody 1.23 nM
Procedure: as §1

[15] = target: T1, PD-1 on the surface of 293T-PD-1 cells; assay: FACS, 293T-PD-1 cells, antibody 33.33 nM
Procedure: as §1

[16] = target: T1, PD-1 on the surface of 293T-PD-1 cells; assay: FACS (2nd), 293T-PD-1 cells, antibody 1.23 nM
Procedure: as §1

[17] = target: T1, PD-1 on the surface of 293T-PD-1 cells; assay: FACS, 293T-PD-1 cells, antibody 0.41 nM
Procedure: as §1

[18] = target: T1, PD-1 on the surface of 293T-PD-1 cells; assay: competitive FACS (2nd), 293T-PD-1 cells, competitor PD-L1
Procedure: (§3) Then 500 μL of 1% PBSA was added, and the mixture was centrifuged at 5600 rpm for 5 minutes to remove the supernatant. 100 μL of FITC […] anti mouse antibody diluted at a ratio of 1:500 was then added into each tube, and the mixture was incubated on ice for 40 minutes in the absence of light after being mixed well. Then the mixture was centrifuged, washed and resuspended, and then transferred to a loading tube for testing.

[19] = target: T1, PD-1 on the surface of 293T-PD-1 cells; assay: FACS, 293T-PD-1 cells, antibody 100 nM
Procedure: as §1

[20] = target: T1, PD-1 on the surface of 293T-PD-1 cells; assay: FACS, 293T-PD-1 cells, antibody 11.11 nM
Procedure: as §1

[21] = target: T1, PD-1 on the surface of 293T-PD-1 cells; assay: competitive FACS, 293T-PD-1 cells, competitor PD-L1-mFc 20 nM
Procedure: as §3

fusion protein PD-1-hFc = target: T3, fusion protein PD-1-hFc (UniProt Q15116 25-170); assay: competitive ELISA, PD-1-hFc coat 0.5 µg/mL, competitor PD-L1-mFc 0.3 µg/ml
T3 construct: not shown: hFc (Fc of human IgG)
T3 sequence (Q15116 25-170): as above
Procedure: The microplate was coated with PD-1-hFc and incubated overnight at 4° C. […] After incubation at 37° C. for 30 minutes, the microplate was washed and patted dry. Then enzyme-labeled secondary antibody was added, and the microplate was incubated at 37° C. for 30 minutes. After the microplate was washed and patted dry, TMB was added for color developing for 5 minutes, and then stop solution was added to terminate the color development. […] SoftMax Pro 6.2.1 was used to analyze and process the data.

[22] = target: T1, PD-1 on the surface of 293T-PD-1 cells; assay: FACS (2nd), 293T-PD-1 cells
Procedure: as §1

[23] = target: T1, PD-1 on the surface of 293T-PD-1 cells; assay: FACS (2nd), 293T-PD-1 cells, antibody 30 nM
Procedure: as §1

T1 sequence (Q15116 25-288 limits assumed): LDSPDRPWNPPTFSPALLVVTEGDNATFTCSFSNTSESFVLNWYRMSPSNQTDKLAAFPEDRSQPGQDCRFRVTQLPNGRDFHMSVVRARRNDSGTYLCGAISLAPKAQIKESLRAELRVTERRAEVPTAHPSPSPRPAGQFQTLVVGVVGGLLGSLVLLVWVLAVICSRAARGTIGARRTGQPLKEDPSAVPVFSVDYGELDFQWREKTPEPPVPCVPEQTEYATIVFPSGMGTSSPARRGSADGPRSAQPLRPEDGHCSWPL

B1: anti-PD-1 humanized antibody 14C12H1L1 (antibody, V domains shown)
VH: EVQLVESGGGLVQPGGSLRLSCAASGFAFSSYDMSWVRQAPGKGLDWVATISGGGRYTYYPDSVKGRFTISRDNSKNNLYLQMNSLRAEDTALYYCANRYGEAWFAYWGQGTLVTVSS
VL: DIQMTQSPSSMSASVGDRVTFTCRASQDINTYLSWFQQKPGKSPKTLIYRANRLVSGVPSRFSGSGSGQDYTLTISSLQPEDMATYYCLQYDEFPLTFGAGTKLELK
B1 showed an MFI [1] of 409, an MFI [2] of 48.1 and an EC50 (fusion protein PD-1-mFc [3]) of 0.037 nM. For the same binder, the EC50 (fusion protein PD-1-mFc [4]) was 0.045 nM, the MFI [5] was 69.2 and the MFI [6] was 868. The MFI [7] was 423, the “OD 450 nm” value (fusion protein PD-1-mFc [8]) was 0.053 and the MFI [9] was 7.4. The MFI [10] was 29.6, the MFI [11] was 814 and the Kd (fusion protein PD-1-mFc [12]) was 0.164 nM. The EC50 [13] was 2.9 nM, the MFI [14] was 202 and the MFI [15] was 655. For the same binder, the MFI [16] was 176, the MFI [17] was 99.7 and the EC50 [18] was 9.21 nM. The MFI [19] was 671, the MFI [20] was 600 and the EC50 [21] was 4.37 nM. The EC50 (fusion protein PD-1-hFc) was 0.745 nM, the EC50 [22] was 3.61 nM and the MFI [23] was 831.
